Assay results as given in patent US20250084372A1, “IN VITRO DERIVATION OF GONADAL SOMATIC CELLS” (Conception Bisosciences, Inc., priority 2020, published 2025).

How the values were obtained:
Format in all cases: cell-based, human
[1] = system: ovarian somatic cells (OSCs); assay: Concentration titration of BMP4, follistatin and FGF2 in OSC induction, qPCR for GATA4 and FOXL2
Experimental: Various concentration titrations of BMP4, Follistatin and FGF were tested in OSC induction, and the resulting cells were examined for expression of bipotential gonadal markers as well as that of granulosa markers.
The OSCs were induced based on the protocols described in Example 6, but with various concentrations of BMP4. Follistatin and FGF tested.
The OSC induction conditions were first tested by varying the BMP4 concentration. […] The gene expression of resulting cells was tested by qPCR for bi-potential gonadal cell markers (GATA4) as well as for granulosa cell markers (FOXL2) (FIGS. 12A and 12B respectively). Expression of GATA4 increased with higher BMP4 concentration, and FOXL2 expression appeared to peak at 10 ng/ml of BMP4 under the conditions tested.
Four different concentrations of follistatin were then tested in OSC induction, with the concentration of BMP4 kept constant at 20 ng/ml as previously described. The gene expression of resulting cells was tested by qPCR for bi-potential gonadal cell markers (GATA4) as well as for granulosa cell markers (FOXL2) (FIGS. 12C and 12D respectively). […] The generation of mature OSCs were also examined by FOXL2 expression. […] In subsequent experiments, OSC induction in the absence or at lower concentrations of follistatin was further explored.
Five different concentrations of FGF2 were then tested in OSC induction, with the concentration of BMP4 kept constant at 20 ng/mL and follistatin removed (Ong/mL). The gene expression of resulting cells were tested by qPCR for bi-potential gonadal cells (GATA4) as well as for granulosa cells (FOXL2) (FIGS. 12E and 12F respectively). As shown by FIGS. 12E and 12F, both GATA4 expression and FOXL2 expression reached saturation at 20 ng/ml of FGF2.

[2] = system: ovarian somatic cells (OSCs); assay: OSC induction with different BMP isoforms, marker qPCR; settings: 20 ng/mL BMP in granulosa double medium
Experimental: Gonadal somatic cells were induced in granulosa double medium comprising different BMP isoforms, and the expression of bipotential gonadal markers as well as that of granulosa markers were measured in the resulting cells.
The expression of bipotential gonadal markers (WT1, LHX9, GADD45G and GATA4) as well as granulosa markers (FOXL2, NR1H4 and KITLG) were measured by qPCR in the resulting cells.

[3] = system: ovarian somatic cells (OSCs); assay: OSC induction with different FGF family members, marker expression; settings: 10 ng/mL FGF in granulosa double medium
Experimental: Fibroblast growth factors (FGFs) are a large family of proteins that are important for signaling events in a wide variety of processes. […] Briefly, gonadal cells were induced in granulosa doublemedium comprising different FGFs, and the expression of bipotential gonadal markers as well as that of granulosa markers were measured in the resulting cells.
The replated cells from the second intermediate population were incubated in the granulosa double medium (also referred to as gonadal induction medium or OSC induction medium) according to Table 18, with the same concentration of either FGF2, 9, 10, 16, 17, 18 or 19. The expression of bipotential gonadal markers (WT1, LHX9, GADD45G and GATA4) as well as granulosa markers (FOXL2, NR1H4 and KITLG) were measured in the resulting cells.

B1: follistatin: protein component of gonadal induction medium (protein, UniProt P19883 30-344, looked up)
Follistatin: GNCWLRQAKNGRCQVLYKTELSKEECCSTGRLSTSWTEEDVNDNTLFKWMIFNGGAPNCIPCKETCENVDCGPGKKCRMNKKNKPRCVCAPDCSNITWKGPVCGLDGKTYRNECALLKARCKEQPELEVQYQGRCKKTCRDVFCPGSSTCVVDQTNNAYCVTCNRICPEPASSEQYLCGNDGVTYSSACHLRKATCLLGRSIGLAYEGKCIKAKSCEDIQCTGGKKCLWDFKVGRGRCSLCDELCPDSKSDEPVCASDNATYASECAMKEAACSSGVLLEVKHSGSCNSISEDTEEEEEDEDQDYSFPISSILEW
Question: Which results are given for B1?
Answer: GATA4 expression on removing follistatin altogether ([1]; 0 ng/mL follistatin, BMP4 20 ng/ml): increase; FOXL2 expression ([1]; 25 ng/ml follistatin, no further increase at higher concentrations): marginal increase; FOXL2 expression ([1]; higher concentrations of follistatin, BMP4 20 ng/ml): marginal increase

B2: BMP7: BMP isoform in gonadal induction medium (protein, UniProt P18075 293-431, looked up)
Bone morphogenetic protein 7: STGSKQRSQNRSKTPKNQEALRMANVAENSSSDQRQACKKHELYVSFRDLGWQDWIIAPEGYAAYYCEGECAFPLNSYMNATNHAIVQTLVHFINPETVPKPCCAPTQLNAISVLYFDDSSNVILKKYRNMVVRACGCH
Question: Which “expression of bipotential gonadal markers (WT1, LHX9, GADD45G, GATA4) compared to BMP4” value [2] does the source give for B2 here?
Answer: comparable or higher

Question: And the “expression of granulosa markers (FOXL2, NR1H4, KITLG) compared to BMP4” value [2]?
Answer: comparable or higher

B3: FGF17: fibroblast growth factor family member (protein, UniProt O60258 23-216, looked up)
Fibroblast growth factor 17: TQGENHPSPNFNQYVRDQGAMTDQLSRRQIREYQLYSRTSGKHVQVTGRRISATAEDGNKFAKLIVETDTFGSRVRIKGAESEKYICMNKRGKLIGKPSGKSKDCVFTEIVLENNYTAFQNARHEGWFMAFTRQGRPRQASRSRQNQREAHFIKRLYQGQLPFPNHAEKQKQFEFVGSAPTRRTKRTRRPQPLT
Question: What does the source list for B3?
Answer: expression of bipotential gonadal markers (WT1, LHX9, GADD45G, GATA4) compared to FGF2 [3]: comparable or higher; expression of granulosa markers (FOXL2, NR1H4, KITLG) compared to corresponding medium [3]: comparable

B4: BMP15: BMP isoform in gonadal induction medium (protein, UniProt O95972 268-392, looked up)
Bone morphogenetic protein 15: QADGISAEVTASSSKHSGPENNQCSLHPFQISFRQLGWDHWIIAPPFYTPNYCKGTCLRVLRDGLNSPNHAIIQNLINQLVDQSVPRPSCVPYKYVPISVLMIEANGSILYKEYEGMIAESCTCR
Question: How did the “expression of bipotential gonadal markers (WT1, LHX9, GADD45G, GATA4) compared to BMP4” value [2] turn out when B4 was run?
Answer: comparable or higher

Question: What about the “expression of granulosa markers (FOXL2, NR1H4, KITLG) compared to BMP4” value [2] of the same molecule?
Answer: comparable or higher

B5: BMP4: BMP isoform in gonadal induction medium (protein, UniProt P12644 293-408, looked up)
Bone morphogenetic protein 4: SPKHHSQRARKKNKNCRRHSLYVDFSDVGWNDWIVAPPGYQAFYCHGDCPFPLADHLNSTNHAIVQTLVNSVNSSIPKACCVPTELSAISMLYLDEYDKVVLKNYQEMVVEGCGCR
Question: B5 was tested. Which “BMP4 concentration at which FOXL2 expression peaks” value ([1]; OSC induction) did it give?
Answer: 10 ng/mL

Question: What about the “concentration at which the BMP4 effect saturates for OSCs” value ([1]; OSC induction) of the same molecule?
Answer: 20 ng/mL

Question: What about the “expression of GATA4” value ([1]; higher BMP4 concentration) of the same molecule?
Answer: increased

B6: FGF18: fibroblast growth factor family member (protein, UniProt O76093 28-207, looked up)
Fibroblast growth factor 18: EENVDFRIHVENQTRARDDVSRKQLRLYQLYSRTSGKHIQVLGRRISARGEDGDKYAQLLVETDTFGSQVRIKGKETEFYLCMNRKGKLVGKPDGTSKECVFIEKVLENNYTALMSAKYSGWYVGFTKKGRPRKGPKTRENQQDVHFMKRYPKGQPELQKPFKYTTVTKRSRRIRPTHPA
Question: How did the “expression of bipotential gonadal markers (WT1, LHX9, GADD45G, GATA4) compared to FGF2” value [3] turn out when B6 was run?
Answer: comparable or higher

Question: What about the “expression of granulosa markers (FOXL2, NR1H4, KITLG) compared to corresponding medium” value [3] of the same molecule?
Answer: comparable

B7: FGF10: fibroblast growth factor family member (protein, UniProt O15520 38-208, looked up)
Fibroblast growth factor 10: QALGQDMVSPEATNSSSSSFSSPSSAGRHVRSYNHLQGDVRWRKLFSFTKYFLKIEKNGKVSGTKKENCPYSILEITSVEIGVVAVKAINSNYYLAMNKKGKLYGSKEFNNDCKLKERIEENGYNTYASFNWQHNGRQMYVALNGKGAPRRGQKTRRKNTSAHFLPMVVHS
Question: Which results are given for B7?
Answer: expression of bipotential gonadal markers (WT1, LHX9, GADD45G, GATA4) compared to FGF2 [3]: comparable or higher; expression of granulosa markers (FOXL2, NR1H4, KITLG) compared to corresponding medium [3]: comparable
